Tests used:
[1] = test system: NADPH oxidase (NOX2); assay: H2O2 production (Amplex red) of perfused lung 5 min after PIP-2 in saline or liposomes; assay type: in vivo, mouse; details: IT or IV
Protocol: FIGS. 1A and 1B: Wild type C57Bl/6 mice at age 8-10 weeks were injected with 2 ug/g body wt of PIP-2 either through an intratracheal catheter (IT) or intravenously (IV). The injected peptide was dissolved in saline or was incorporated into unilamellar liposomes consisting of dipalmitoyl phosphatidylcholine (DPPC), egg phosphatidylcholine (PC), phosphatidylglycerol (PG), and cholesterol (molar ratio of lipids, 50:25:10:15). […] Mice were sacrificed after 5 min, lungs were perfused until cleared of blood, and then subjected to recirculating perfusion under temperature-controlled (37° C.) conditions in the presence of the fluorescent indicator Amplex red plus horseradish peroxidase (HRP) in order to monitor the oxidation of Amplex red by H2O2. The fluorescence of aliquots of perfusate was measured at the indicated times and expressed as arbitrary fluorescence units (AFU). The increasing fluorescence with time of perfusion indicates the production of H2O2 reflecting the activation of cellular NADPH oxidase (NOX2).
The lungs were removed from mice and studied in an isolated system. The slope of the lines indicates the production of oxidants (H2O2).

[2] = test system: ROS production in lung; assay: Lung ROS production (DFF-DA fluorescence) after IT LPS; assay type: in vivo, mouse; details: PIP-2 with IT LPS 5 μg/g; 6, 12 and 24 h
Protocol: FIGS. 9A and 9B: PIP-2 inhibits the increased lung aiPLA2 activity and increased ROS generation after LPS administration. LPS (5 μg/g body weight) was administered by intratracheal (IT) instillation along with liposomes alone (labeled as LPS) or with PIP-2 in liposomes (labeled as +PIP-2). Control was liposomes alone without LPS (labeled as control). Mice were sacrificed at 6, 12, or 24 h after LPS and lungs were perfused in situ for 15 min with saline solution containing the fluorophore difluorofluoroscein diacetate (DFF-DA). Lungs then were homogenized and assayed for: FIG. 9A: aiPLA2 activity; FIG. 9B: fluorescence of the lung homogenate as an index of ROS production. Results are mean±SE for N=3 for A and N=4 for B. *P<0.05 vs. Control and +PIP-2 at the same time point; ΔP<0.05 vs. corresponding value at 6 h.
To determine lung ROS production after LPS treatment, intact mice were treated with LPS (5 μg/g)±PIP-2 (2 μg/g). Mice were anesthesized at 6, 12, or 24 h after treatment with LPS and lungs in situ were cleared of blood and then perfused for […] with saline solution containing the fluorophore DFF-DA that is hydrolyzed intracellularly to DFF. Lungs were then homogenized, and fluorescence of the homogenate was measured at Ex 495 nm, Em 525 nm. Lung fluorescence was expressed as AFU per minute of perfusion with normalization to the mouse body wt.

[3] = molecular target: T1, aiPLA2 activity (Homo sapiens, UniProt P30041); assay: Inhibitory activity of PIP-2 after storage as dry powder at room temp.; assay type: biochemical; details: for aiPLA2 Activity: PIP-2 stored as dry powder at room temp.
T1 sequence (P30041 1-224): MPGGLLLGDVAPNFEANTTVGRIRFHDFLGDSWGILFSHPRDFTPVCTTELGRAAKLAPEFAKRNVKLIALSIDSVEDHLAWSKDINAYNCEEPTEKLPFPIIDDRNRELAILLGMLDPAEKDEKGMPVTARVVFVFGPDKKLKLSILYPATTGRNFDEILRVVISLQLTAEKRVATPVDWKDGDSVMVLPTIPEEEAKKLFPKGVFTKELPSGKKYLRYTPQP
Protocol: aiPLA2 activity was measured at intervals to determine how long the peptide could maintain its efficacy as an inhibitor of aiPLA2 activity. The peptide was stable for the 4 months of observation.

[4] = molecular target: T2, Prdx6 (Mus musculus, UniProt O08709); details: PIP-2 2 μg/g in liposomes, for at least 24 h; shown previously; cited from earlier work
T2 construct: Lungs were harvested at intervals between 4 and 72 h after the PIP-2 administration, homogenized, and analyzed for Prdx6-PLA2 activity; from tissue; host or cells: mouse lung homogenate (wild type mice)
T2 sequence (O08709 1-224): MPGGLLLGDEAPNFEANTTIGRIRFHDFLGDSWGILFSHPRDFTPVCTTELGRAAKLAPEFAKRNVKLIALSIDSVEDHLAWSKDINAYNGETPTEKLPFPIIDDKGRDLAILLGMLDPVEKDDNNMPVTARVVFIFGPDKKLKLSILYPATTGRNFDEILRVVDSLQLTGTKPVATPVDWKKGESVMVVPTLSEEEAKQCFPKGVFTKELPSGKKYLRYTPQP

Q: With LHDFRHQIL (Inhibitory peptide.) [PIP-2] as the sequence, how does the “generation of H2O2” value ([1]; PIP-2 2 ug/g in liposomes) read?
A: The value was “markedly inhibits”.

Q: What about the “effect on the rate of H2O2 production” value ([1]; PIP-2 2 ug/g in saline) of the same sequence?
A: The value was “no effect”.

Q: And the “ROS-generated fluorescence of lung after LPS” value [2]?
A: The value was “dramatic decrease”.

Q: And the “aiPLA2 Activity” value ([3]; 0 days, no PIP-2 100)?
A: Its value is 29.7 ± 2.9 nmol/min/mg prot.

Q: What about the “aiPLA2 Activity” value ([3]; 30 d) of the same sequence?
A: Its value is 31.1 ± 1.3 nmol/min/mg prot.

Q: And the “aiPLA2 Activity” value ([3]; 45 d)?
A: Its value is 31.8 ± 1.0 nmol/min/mg prot.

Q: What about the “aiPLA2 Activity” value ([3]; 60 d) of the same sequence?
A: Its value is 32.8 ± 0.9 nmol/min/mg prot.

Q: And the “aiPLA2 Activity” value ([3]; 120 d, no PIP-2 at 120 d 103)?
A: The value was 31.9 ± 2.4 nmol/min/mg prot.

Q: What about the “stability as dry powder” value ([3]; room temp., 4 months of observation) of the same sequence?
A: The value was “stable”.

Q: And the “inhibition of lung aiPLA2 activity” value [4]?
A: Its value is roughly 90%.

Source: patent US12070483B2, “Compositions and methods for treatment of acute lung injury” (THE TRUSTEES OF THE UNIVERSITY OF PENNSYLVANIA, priority 2018, dated 2024)
